Columns and labels:
[1] = biological target: T1, ACLYana-1-pHis peptide (AGAG-1-pHis-AGAG); assay: BLI; N-terminally biotinylated peptides (20 nM) on streptavidin biosensors, varying concentrations of Fab in solution; 50 mM Hepes pH 8.0, 150 mM NaCl, 0.05% Tween-20, 0.2% BSA; association 120 s, dissociation 200 s; global fit to a 1:1 Langmuir model; Octet RED96e; in triplicate
T1 sequence (peptide, 1-phosphohistidine at position 5; biotin on the N-terminus): AGAGHAGAG

[2] = biological target: ACLYana-1-pTza peptide (AGAG-1-pTza-AGAG); assay: as above

Kd [1]: 28.3 nM | koff [1]: 0.00494 s⁻¹ | kon [1]: 175000 M⁻¹ s⁻¹ | Kd [2]: 16 nM | koff [2]: 0.00136 s⁻¹ | kon [2]: 85100 M⁻¹ s⁻¹
B1: SC50-3 Fab (SC50-3 heavy chain with SC1-1 light chain) (Fab, V domains shown)
VH: QSVKESEGGLFKPTDTLTLTCTASGFSLNGYGVIWVRQAPGKGLEWIGSAGAYGRIYYPNWARSRATITRNTNLNTVSLKMTSLTAADTATYFCARRTNVSTSVGFDSWGPGTLVTVSS
VL: DMTQTPSSKSVPVGDTVTINCQASESVYSNNRLSWFQQKPGQPPKLLIYLVSTLASGVPSRFKGSGSGTQFTLTISDVVCDDAATYYCVGYKSSTTDGLAFGGGTEVVVK

— paper PMC8017925, “Structural basis for differential recognition of phosphohistidine-containing peptides by 1-pHis and 3-pHis monoclonal antibodies” (Proceedings of the National Academy of Sciences of the …, 2021)
